According to US20250320281A1:

Legend:
Assay in all cases: cell-based or functional assay
[1] = molecular target: HIV-1 Env of isolate MGRM-Chronic-B-011 (subtype B pseudovirus) (HIV-1)
[2] = molecular target: HIV-1 Env of isolate SC422661.8 (subtype B pseudovirus) (HIV-1)
[3] = molecular target: HIV-1 Env of isolate MGRM-AE-005 (HIV-1)
[4] = molecular target: HIV-1 Env of isolate APV_17 (subtype B pseudovirus) (HIV-1)
[5] = molecular target: HIV-1 Env of isolate MGRM-Chronic-B-017 (subtype B pseudovirus) (HIV-1)
[6] = molecular target: HIV-1 Env of isolate MGRM-D-011 (pseudovirus) (HIV-1)
[7] = molecular target: HIV-1 Env of isolate MGRM-AG-011 (HIV-1)
[8] = molecular target: HIV-1 Env of isolate MGRM-F1-015 (HIV-1)
[9] = molecular target: HIV-1 Env of isolate 92UG046 (pseudovirus) (HIV-1)
[10] = molecular target: HIV-1 Env of isolate MGRM-D-014 (pseudovirus) (HIV-1)
[11] = molecular target: HIV-1 Env of isolate 92UG001 (clade D pseudovirus) (HIV-1)
[12] = molecular target: HIV-1 Env of pseudovirus MGRM-G-016 (HIV-1, clade G isolate MGRM-G-016)
[13] = molecular target: HIV-1 Env of pseudovirus MGRM-G-027 (HIV-1, clade G isolate MGRM-G-027)
[14] = molecular target: HIV-1 envelope glycoprotein (Env) of isolate MGRM-A-004, clade A (HIV-1)
[15] = molecular target: HIV-1 NL43 envelope glycoprotein (Env) on pseudovirus (HIV-1)
[16] = molecular target: HIV-1 Env of pseudovirus MGRM-G-024 (HIV-1, clade G isolate MGRM-G-024)
[17] = molecular target: HIV-1 Env of pseudovirus MGRM-Chronic-B-017 (HIV-1)
[18] = molecular target: HIV-1 Env of pseudovirus MGRM-AE-004 (clade CRF01_AE) (HIV-1)
[19] = molecular target: HIV-1 Env of isolate TRJ0.58 (Acute), clade B, on pseudovirus (HIV-1)
[20] = molecular target: HIV-1 Env of isolate THR0.18 (Acute), clade B, on pseudovirus (HIV-1)
[21] = molecular target: HIV-1 envelope glycoprotein (Env) of isolate MGRM-A-003, clade A (HIV-1)
[22] = molecular target: HIV-1 Env of isolate MGRM-D-008 (clade D pseudovirus) (HIV-1)
[23] = molecular target: HIV-1 Env of isolate VLGCA1 (clade A pseudovirus) (HIV-1)
[24] = molecular target: HIV-1 Env of pseudovirus MGRM-AE-002 (clade CRF01_AE) (HIV-1)
[25] = molecular target: HIV-1 Env of pseudovirus MGRM-F1-012 (HIV-1)
[26] = molecular target: HIV-1 Env of isolate 97ZA012 (clade C) (HIV-1 isolate 97ZA012)
[27] = molecular target: HIV-1 envelope glycoprotein (Env) of isolate 92RW020, clade A (HIV-1)
[28] = molecular target: HIV-1 Env of pseudovirus MGRM-AG-002 (clade CRF_AG) (HIV-1)
[29] = molecular target: HIV-1 Env of pseudovirus MGRM-G-014 (HIV-1, clade G isolate MGRM-G-014)
[30] = molecular target: HIV-1 Env of isolate MGRM-AE-005 (subtype AE) (HIV-1)
[31] = molecular target: HIV-1 Env of isolate MGRM-G-004 (HIV-1)
[32] = molecular target: HIV-1 Env of isolate MGRM-G-027 (HIV-1)
[33] = molecular target: HIV-1 Env of isolate VLGCA1 (subtype A) (HIV-1)
[34] = molecular target: HIV-1 MGRM-D-001 Env (pseudovirus) (HIV-1)

4970_K22 (PGT-144) (antibody), sequence (VH): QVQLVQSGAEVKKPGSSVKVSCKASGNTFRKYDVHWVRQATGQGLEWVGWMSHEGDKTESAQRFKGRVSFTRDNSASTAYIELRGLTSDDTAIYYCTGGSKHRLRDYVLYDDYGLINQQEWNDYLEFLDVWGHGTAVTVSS
4970_K22 (PGT-144) (antibody), sequence (VL): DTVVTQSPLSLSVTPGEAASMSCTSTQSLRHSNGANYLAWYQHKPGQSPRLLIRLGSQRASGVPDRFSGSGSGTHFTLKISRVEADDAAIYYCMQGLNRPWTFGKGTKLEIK
4980_N08 (PGT-143) (antibody), sequence (VH): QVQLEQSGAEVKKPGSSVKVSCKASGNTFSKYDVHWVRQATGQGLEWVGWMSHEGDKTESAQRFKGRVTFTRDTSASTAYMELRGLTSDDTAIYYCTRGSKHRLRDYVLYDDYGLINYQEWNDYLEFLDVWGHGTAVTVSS
4980_N08 (PGT-143) (antibody), sequence (VL): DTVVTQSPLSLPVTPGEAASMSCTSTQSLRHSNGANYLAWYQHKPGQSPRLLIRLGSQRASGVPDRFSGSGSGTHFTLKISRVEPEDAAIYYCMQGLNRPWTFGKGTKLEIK
1443_C16 (PG16) (TCN-116) (antibody), sequence (VH): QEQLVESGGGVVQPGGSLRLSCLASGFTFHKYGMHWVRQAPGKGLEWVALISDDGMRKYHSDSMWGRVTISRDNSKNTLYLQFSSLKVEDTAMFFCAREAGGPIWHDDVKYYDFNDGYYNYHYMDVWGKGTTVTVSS
1443_C16 (PG16) (TCN-116) (antibody), sequence (VL): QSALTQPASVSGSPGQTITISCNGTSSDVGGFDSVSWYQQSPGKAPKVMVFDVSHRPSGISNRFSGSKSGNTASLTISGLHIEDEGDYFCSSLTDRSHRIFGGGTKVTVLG
4995_E20 (PGT-142) (antibody), sequence (VH): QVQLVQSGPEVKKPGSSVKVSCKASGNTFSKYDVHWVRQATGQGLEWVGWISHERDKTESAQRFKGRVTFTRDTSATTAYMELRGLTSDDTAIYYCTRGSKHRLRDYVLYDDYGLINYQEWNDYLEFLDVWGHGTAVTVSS
4995_E20 (PGT-142) (antibody), sequence (VL): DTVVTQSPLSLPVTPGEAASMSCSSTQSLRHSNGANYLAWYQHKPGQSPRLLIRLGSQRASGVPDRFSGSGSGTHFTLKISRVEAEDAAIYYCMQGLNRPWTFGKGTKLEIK
4993_K13 (PGT-141) (antibody), sequence (VH): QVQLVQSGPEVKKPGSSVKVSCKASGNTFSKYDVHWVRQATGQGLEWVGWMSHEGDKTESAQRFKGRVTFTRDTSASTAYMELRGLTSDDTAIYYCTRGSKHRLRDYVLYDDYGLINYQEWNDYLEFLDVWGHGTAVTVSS

Substance	IC50 (µg/ml), pseudovirus neutralization [11] [µg/mL]	IC50 (µg/ml), pseudovirus neutralization [12] [µg/mL]	IC50 (µg/ml), pseudovirus neutralization [13] [µg/mL]	IC50 (µg/ml), pseudovirus neutralization [14] [µg/mL]	IC50, pseudovirus neutralization [15] [µg/mL]	IC50 (µg/ml), pseudovirus neutralization [16] [µg/mL]	IC50 (µg/ml), pseudovirus neutralization [17] [µg/mL]	IC50 [18] [µg/mL]	IC50 (µg/ml), pseudovirus neutralization [19] [µg/mL]	IC50 (µg/ml), pseudovirus neutralization [20] [µg/mL]	IC50 (µg/ml), pseudovirus neutralization [21] [µg/mL]	IC50 (µg/ml), pseudovirus neutralization [22] [µg/mL]	IC50 (µg/ml), pseudovirus neutralization [23] [µg/mL]	IC50 [24] [µg/mL]	IC50 (µg/ml), pseudovirus neutralization [25] [µg/mL]	IC50 (µg/ml), pseudovirus neutralization [26] [µg/mL]	IC50 (µg/ml), pseudovirus neutralization [27] [µg/mL]	IC50 [28] [µg/mL]	IC50 (µg/ml), pseudovirus neutralization [29] [µg/mL]	IC50 (µg/mL), pseudovirus neutralization [32] [µg/mL]	other results
5145_B14 (PGT-127) (antibody)																					IC50 (µg/mL), pseudovirus neutralization [1]: 0.297 µg/mL; IC50 (µg/mL), pseudovirus neutralization [2]: 36.7 µg/mL; IC50 [3]: > 50 µg/mL; IC50 (µg/mL), pseudovirus neutralization [4]: 10.4 µg/mL; IC50 (µg/mL), pseudovirus neutralization [5]: > 50 µg/mL; IC50, pseudovirus neutralization [6]: 0.015 µg/mL; IC50 [7]: > 50 µg/mL; IC50 (µg/mL), pseudovirus neutralization [8]: > 50 µg/mL; IC50, pseudovirus neutralization [9]: > 50 µg/mL; IC50, pseudovirus neutralization [10]: 0.393 µg/mL
b12 (antibody)	1.01	> 50	> 50	> 50	0.06	2.38	2.59	> 50	> 50	3.62	> 50	> 50	> 50	17.1	> 50	> 50	> 50	0.89	> 50		
2F5 (antibody)	13	16.8	0.28	7.49	2.41	1.07	> 50	0.98	> 50	> 50	7.37	> 50	3.9	0.31	> 50	> 50	3.36	0.54	9.65		
4E10 (antibody)	13.6	1.02	1.19	3.14	4.95	1.57	2.77	1.27	11.9	4.68	5.94	42.9	4.58	0.55	0.37	4.7	4.54	0.8	13.7		
1495_C14 (PGC14) (antibody)	> 50	> 50	> 50	> 50	0.373	> 50	> 50	> 50	> 50	> 50	> 50	> 50	> 50	> 50	> 50	> 50	46	> 50	> 50		
4838_L06 (PGT-121) (antibody)																					IC50 (µg/mL), pseudovirus neutralization [1]: > 50 µg/mL; IC50 (µg/mL), pseudovirus neutralization [2]: 0.098 µg/mL; IC50 [3]: > 50 µg/mL; IC50 (µg/mL), pseudovirus neutralization [4]: 0.066 µg/mL; IC50 (µg/mL), pseudovirus neutralization [5]: > 50 µg/mL; IC50, pseudovirus neutralization [6]: 0.018 µg/mL; IC50 [7]: > 50 µg/mL; IC50 (µg/mL), pseudovirus neutralization [8]: 28.4 µg/mL; IC50, pseudovirus neutralization [9]: > 50 µg/mL; IC50, pseudovirus neutralization [10]: 0.009 µg/mL
4980_N08 (PGT-143) (antibody)																				> 50	IC50 (µg/mL), pseudovirus neutralization [30]: > 50 µg/mL; IC50 (µg/mL), pseudovirus neutralization [31]: > 50 µg/mL; IC50 (µg/mL), pseudovirus neutralization [33]: 17.4 µg/mL; IC50 (neutralizing activity, pseudovirus) [34]: > 10 µg/mL
4970_K22 (PGT-144) (antibody)																				> 50	IC50 (µg/mL), pseudovirus neutralization [30]: > 50 µg/mL; IC50 (µg/mL), pseudovirus neutralization [31]: > 50 µg/mL; IC50 (µg/mL), pseudovirus neutralization [33]: > 50 µg/mL; IC50 (neutralizing activity, pseudovirus) [34]: > 10 µg/mL
2G12 (antibody)	> 50	> 50	> 50	> 50	0.75	> 50	> 50	> 50	> 50	> 50	> 50	> 50	> 50	> 50	1.81	> 50	0.48	0.54	> 50		
4995_E20 (PGT-142) (antibody)																				> 50	IC50 (µg/mL), pseudovirus neutralization [30]: > 50 µg/mL; IC50 (µg/mL), pseudovirus neutralization [31]: > 50 µg/mL; IC50 (µg/mL), pseudovirus neutralization [33]: 2.75 µg/mL; IC50 (neutralizing activity, pseudovirus) [34]: > 10 µg/mL
1496_C09 (PG9) (TCN-109) (antibody)	41.8	0.4	0.01			0.07	0.32	0.01	0.43	12.4	0.65	6.86	0.07	0.04	0.01	1.27	0.08	0.04	6.32	0.007	
VRC01 (antibody)																				0.36	IC50 (µg/mL), pseudovirus neutralization [30]: 0.029 µg/mL; IC50 (µg/mL), pseudovirus neutralization [31]: > 50 µg/mL; IC50 (µg/mL), pseudovirus neutralization [33]: 0.163 µg/mL; IC50 [8]: 0.387 µg/mL
PGV04 (antibody)																				0.125	IC50 (µg/mL), pseudovirus neutralization [31]: > 50 µg/mL
1443_C16 (PG16) (TCN-116) (antibody)	> 50	11.3	0.01	0.04	< 0.0025	0.01	0.02	0.002	1.16	1.34	2.65	> 50	0.18	0.01	0.003	2.55	0.28	0.03	6.98		
4993_K13 (PGT-141) (antibody)																				> 50	IC50 (µg/mL), pseudovirus neutralization [30]: > 50 µg/mL; IC50 (µg/mL), pseudovirus neutralization [31]: > 50 µg/mL; IC50 (µg/mL), pseudovirus neutralization [33]: 2.07 µg/mL; IC50 (neutralizing activity, pseudovirus) [34]: > 10 µg/mL
